The target in this assay is T1, B型肉毒毒素抗原 (Clostridium Botulinum, UniProt P10844 2-1291).
T1 sequence: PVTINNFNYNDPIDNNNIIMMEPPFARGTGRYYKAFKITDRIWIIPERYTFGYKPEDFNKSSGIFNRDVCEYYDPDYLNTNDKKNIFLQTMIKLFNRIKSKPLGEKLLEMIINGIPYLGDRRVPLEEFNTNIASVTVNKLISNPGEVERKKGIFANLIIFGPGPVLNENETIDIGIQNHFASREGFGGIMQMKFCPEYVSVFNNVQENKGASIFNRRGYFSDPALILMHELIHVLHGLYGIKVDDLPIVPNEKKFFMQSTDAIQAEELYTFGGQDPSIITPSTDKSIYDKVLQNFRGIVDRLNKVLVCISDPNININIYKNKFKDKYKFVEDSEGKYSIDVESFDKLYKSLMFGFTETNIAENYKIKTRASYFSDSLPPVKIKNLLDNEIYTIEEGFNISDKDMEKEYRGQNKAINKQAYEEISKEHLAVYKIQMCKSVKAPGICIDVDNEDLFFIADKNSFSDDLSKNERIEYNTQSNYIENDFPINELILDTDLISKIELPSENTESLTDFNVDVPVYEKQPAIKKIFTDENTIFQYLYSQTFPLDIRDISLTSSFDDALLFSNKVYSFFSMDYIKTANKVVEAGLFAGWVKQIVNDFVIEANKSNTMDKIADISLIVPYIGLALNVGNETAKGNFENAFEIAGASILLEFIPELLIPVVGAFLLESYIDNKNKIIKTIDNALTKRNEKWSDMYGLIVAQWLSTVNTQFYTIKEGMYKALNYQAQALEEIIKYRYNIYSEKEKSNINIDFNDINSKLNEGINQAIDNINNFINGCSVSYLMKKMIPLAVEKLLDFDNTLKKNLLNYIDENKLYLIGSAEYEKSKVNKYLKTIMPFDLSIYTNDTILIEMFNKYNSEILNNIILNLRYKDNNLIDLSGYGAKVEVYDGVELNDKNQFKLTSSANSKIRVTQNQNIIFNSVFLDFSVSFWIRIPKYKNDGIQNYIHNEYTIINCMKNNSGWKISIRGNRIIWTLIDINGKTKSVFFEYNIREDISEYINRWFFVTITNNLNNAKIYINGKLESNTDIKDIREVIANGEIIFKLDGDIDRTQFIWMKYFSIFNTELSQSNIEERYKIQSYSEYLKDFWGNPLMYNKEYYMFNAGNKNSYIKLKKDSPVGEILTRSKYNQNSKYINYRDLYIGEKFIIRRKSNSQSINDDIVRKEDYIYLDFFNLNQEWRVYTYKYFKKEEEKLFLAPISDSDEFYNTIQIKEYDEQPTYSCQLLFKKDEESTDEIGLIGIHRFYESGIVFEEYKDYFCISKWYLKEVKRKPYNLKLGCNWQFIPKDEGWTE
Kind of assay: ELISA.

B1: 人源抗A型肉毒神经毒素基因工程抗体 HuAb-BNa 单链抗体 (ScFv) (scFv)
scFv: QVQLQESGPGLVKPSETLSLTCTVSGGSISSGSYYWGWIRQPPGKGLEWIGSIYYSGSTYYNPSLKSRVTISVDTSKNQFSLMLSSVTAADTAVYYCARQGSSGYYQNWFDPWGQGTLVTVSSSGGGGSGGGGSGGGGDVVMTQSPGTLSLSPGERATLSCRASQSVSSSYLAWYQQKPGQAPRLLIYGASSRATGIPDRFSGSGSGTDFTLTISRPEPEDFAVYYCQQPGFTFGPGTKVEIKRTVAA
B1: the binding result is recorded as “no binding”.
